# According to US20240407381A1, “FOOD COMPOSITIONS COMPRISING RECOMBINANT CELLS COMPRISING TRANSCOBALAMIN” (IMAGINDAIRY LTD., priority 2021, published 2024):
# B1: transcobalamin: recombinant bovine transcobalamin secreted from A. oryzae and purified from the harvested medium; TC2 expression confirmed (protein, UniProt Q9XSC9 19-432, looked up)
# Transcobalamin-2: NICEITEVDSTLVERLGQRLLPWMDRLSQEQLNPSIYVGLRLSSLQAGAKEAHYLHSLKLSYQQSLLRPASNKDDNDSEAKPSMGQLALYLLALRANCEFIGGRKGDRLVSQLKRFLEDEKRAIGHNHQGHPRTSYYQYSLGILALCVHQKRVHDSVVGKLLYAVEHKPHLLQDHVSVDTMAMAGMAFSCLELSNLNPKQRNRINLALKRVQEKILKAQTPEGYFGNVYSTPLALQLLMGSLRPSVELGTACLKAKAALQASLQHKTFQNPLMISQLLPVLNQKSYVDLISPDCQAPRALLEPALETPPQAKVPKFIDVLLKVSGISPSYRHSVSVPAGSSLEDILKNAQEHGRFRFRTQASLSGPFLTSVLGRKAGEREFWQVLRDPDTPLQQGIADYRPKDGETIELRLVGW
# Experiment: biochemical tests of B12 binding
# Settings: purified recombinant transcobalamin expressed in A. oryzae
# Source text: The entire process was scalable to produce the protein in large batches. Afterwards, the inventors feedbacked the expression information (RNAseq) to the machine learning to create better constructs until reaching optimal transcobalamin expression.
molecule,measurement,value
B1,B12 binding,effective B12 binding
